Biological target: Med25 AcID, Med25(394-543)-His6 (UniProt Q71SY5)
Assay: stopped-flow fluorescence transient kinetics

Sequence of Med25 AcID, Med25(394-543)-His6 (Q71SY5 394-543): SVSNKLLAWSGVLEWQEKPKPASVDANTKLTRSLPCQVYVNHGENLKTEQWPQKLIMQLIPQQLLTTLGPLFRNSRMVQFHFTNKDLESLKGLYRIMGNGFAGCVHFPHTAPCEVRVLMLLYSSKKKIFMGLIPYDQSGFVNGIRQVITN

Row | Substance | fold gain in affinity against the parent TAD
1 | ETV4^∆Nt TAD with 4-DMN on the N terminus (from UniProt P43268 49-484) (peptide) | 1.7 fold
2 | ETV1^∆Nt TAD with 4-DMN on the N terminus (from UniProt P50549 42-477) (peptide) | 1.7 fold

Reference: publication PMC7959569
